Molecular target: the molecule itself
Test: SEC + AUC

B1: HCoV-229E fusion core (FC1), HR1-linker-HR2 single chain (domain or fragment)
chain: ENQKILAASFNKAMTNIVDAFTGVNDAITQTSQALQTVATALNKIQDVVNQQGNSLNHLTSQLRQNFQLVPRGSGGSGGSGGLEVLFQGPDLVVEQYNQTILNLTSEISTLENKSAELNYTVQKLQTLIDNINSTLVDLKWL
stoichiometry N: 3

From article PMC7092869 (Biochemical and Biophysical Research Communications, 2018)
